Experimental data published in FireProtDB (doi:10.1016/j.jmb.2010.08.048).

B1: Glucocorticoid receptor, P04150 (parent)
chain: MDSKESLTPGREENPSSVLAQERGDVMDFYKTLRGGATVKVSASSPSLAVASQSDSKQRRLLVDFPKGSVSNAQQPDLSKAVSLSMGLYMGETETKVMGNDLGFPQQGQISLSSGETDLKLLEESIANLNRSTSVPENPKSSASTAVSAAPTEKEFPKTHSDVSSEQQHLKGQTGTNGGNVKLYTTDQSTFDILQDLEFSSGSPGKETNESPWRSDLLIDENCLLSPLAGEDDSFLLEGNSNEDCKPLILPDTKPKIKDNGDLVLSSPSNVTLPQVKTEKEDFIELCTPGVIKQEKLGTVYCQASFPGANIIGNKMSAISVHGVSTSGGQMYHYDMNTASLSQQQDQKPIFNVIPPIPVGSENWNRCQGSGDDNLTSLGTLNFPGRTVFSNGYSSPSMRPDVSSPPSSSSTATTGPPPKLCLVCSDEASGCHYGVLTCGSCKVFFKRAVEGQHNYLCAGRNDCIIDKIRRKNCPACRYRKCLQAGMNLEARKTKKKIKGIQQATTGVSQETSENPGNKTIVPATLPQLTPTLVSLLEVIEPEVLYAGYDSSVPDSTWRIMTTLNMLGGRQVIAAVKWAKAIPGFRNLHLDDQMTLLQYSWMFLMAFALGWRSYRQSSANLLCFAPDLIINEQRMTLPCMYDQCKHMLYVSSELHRLQVSYEEYLCMKTLLLLSSVPKDGLKSQELFDEIRMTYIKELGKAIVKREGNSSQNWQRFYQLTKLLDSMHEVVENLLNYCFQTFLDKTMSIEFPEMLAEIITNQIPKYSNGNIKKLLFHQK

Variants of: B1
Settings: Homo sapiens; pH 7.8; Thermal; CD; Tris-HCl 25mM; structure 1M2Z; whole UniProt chain shown

Variant | Tm [°C]
V702A | 47.2
E705G | 46.6
F602S | 50.3
F602S A605V M752T M560K | 49.9
F602S A605V M752T | 56
A605V M752T V702A E705G | 54.4
F602S A605V M752T V702A E705G | 58.6
M752T | 48.6
A605V | 49.3
F602S A605V | 54
A605V M752T V702A | 53.6
A605V M752T | 51.5
A605V M752T E705G | 52.9
